Source: PMC6054995

Biological target: Marchantia polymorpha 3-phosphoglycerate dehydrogenase, recombinant, without the transit peptide (Marchantia polymorpha)
Assay: SEC; HiPrep 16/60 Sephacryl S-300 HR, 0.5 mL/min, 100 mM sodium phosphate buffer (pH 9.0); mass estimated from a standard curve of thyroglobulin, apoferritin, beta-amylase, albumin and carbonic anhydrase

- stoichiometry N: 4
Substance: Marchantia polymorpha 3-phosphoglycerate dehydrogenase, recombinant, without the transit peptide (enzyme)
